{"source": "patent US20090305946A1", "key": {"[1]": {"target": "full-length human Presenilin-1 (human) (UniProt P49768)", "assay": "cell-based or functional assay"}, "[2]": {"target": "full-length human Presenilin-1 (human) (UniProt P49768)", "assay": "[^35S]-GTPγS labelling of extracts of co-transfected ES cells, immunoprecipitation with anti-PS-1"}, "[3]": {"target": "full-length human Presenilin-1 (human) (UniProt P49768)", "assay": "^35S-GTPγS incorporation in extracts of co-transfected ES cells, immunoprecipitation with anti-PS-1 loop MAb, scintillation counting"}, "[4]": {"target": "full-length human Presenilin-2 (human) (UniProt P49810)", "assay": "^35S-GTPγS incorporation in extracts of co-transfected ES cells, immunoprecipitation with anti-PS MAb, scintillation counting"}, "[5]": {"target": "endogenous rat PS proteins in rat hippocampal membranes", "assay": "cell-based or functional assay"}}}
{"substance": "full-length human β-amyloid precursor protein (from UniProt P05067 18-770) (ligand)", "values": [{"measurement": "^35S-GTPγS incorporation (Gαo immunoprecipitated with K-20), high density co-culture (% increase over basal)", "setting": "[1]", "value": 200}, {"measurement": "^35S-GTPγS incorporation (Gαo immunoprecipitated with K-20), high density co-culture with PTx (% lower than basal)", "setting": "[1]", "value": 38}, {"measurement": "^35S-GTPγS incorporation (Gαo immunoprecipitated with K-20), low density co-culture (% increase over basal)", "setting": "[1]", "value": 33}]}
{"substance": "human G-protein GαoA (from UniProt P09471 2-354)", "values": [{"measurement": "fold increase in ^35S-incorporation immunoprecipitated with antibody to PS-1", "setting": "[2]", "value": 8, "unit": "fold"}, {"measurement": "^35S-GTPγS incorporation, % of untransfected control", "setting": "[3]", "value": 700, "unit": "%"}, {"measurement": "% increase in ^35S-GTPγS binding over untransfected control", "setting": "[4]", "value": 700, "unit": "%"}]}
{"substance": "soluble ectodomain of human β-APP, baculovirus-derived (from UniProt P05067 18-701) (ligand)", "values": [{"measurement": "^35S-GTPγS incorporation (Gαo) in PS-1-only APP-/- fibroblasts", "setting": "[1]", "value": 500, "unit": "% increase"}, {"measurement": "^35S-GTPγS incorporation in solubilized rat hippocampal membranes", "setting": "[5]", "value": 600, "unit": "% increase"}, {"measurement": "^35S-GTPγS incorporation in solubilized rat hippocampal membranes (% greater than untreated)", "setting": "[5]", "value": 100}]}
